Source: patent US20040110933A1

Legend:
[1] = target: biotinylated CD44Fc (human) (UniProt P16070); assay: phage ELISA on b-CD44Fc, no competitor
[2] = target: biotinylated CD44Fc (human) (UniProt P16070); assay: competition phage ELISA on b-CD44Fc, competitor S5 (450 ng) pre-incubated

B1: BE-A11 (Fab displayed on phage) (Fab, V domains shown)
VH: EVQLLESGGGLVQPGGSLRLSCAASGFTFSKYSMEWVRQAPGKGLEWVSRIYPSGGPTLYADSVKGRFTISRDNSKNTLYLQMNSLRAEDTAVYYCARDSYGMDVWGQGTTVTVSS
VL: QSVLTQPASVSGSPGQSITISCTGTSSDVGGYSYVSWYQQHPGKAPKLMIYEVSNRPSGVSNRFSGSKSGNTASLTISGLQAEDEADYYCNSYTSSSTKMFGGGTRLTVL
phage ELISA signal (column CD44) [1]: 1.08 | phage ELISA signal (column CD44 + S5) [2]: 0.261
